We go through one molecule from paper PMC8646660 (EMBO Molecular Medicine, 2021).

This assay concerns the target SARS-CoV-2 S receptor-binding domain (RBD), biotinylated (SARS-CoV-2, UniProt P0DTC2, biotin on the Avi tag (enzymatic, BirA)). The experiment in a line: cell-based or functional assay.

B1: FD20 (IgG format) (antibody, V domains shown)
VH: QVQLQQSGAEVKKPGSSVKVSCKASGGTFSSYAFSWVRQAPGQGLEWMGRIIPILGIANYAQKFQGRVTITADISTSTAYMALSSLRSEDTAVYYCAKVEVNIGMDDYYYYYGMDVWGQGTTVTVSS
VL: not shown
B1: the “neutralisation of SARS-CoV-2 pp harbouring wild-type S, IC50 (fold in brackets)” value amounted to 12 nM.
